The values that follow come from PMC7059798, “Phosphoglucomutase Is Not the Target for Galactose Toxicity in Plants” (Frontiers in Plant Science, 2020).

Broadly, the Km is the substrate concentration at which the rate is half of its maximum.

Substrate in data set [1]: O=P(O)(O)O[C@H]1O[C@H](CO)[C@@H](O)[C@H](O)[C@H]1O
Briefly: purified protein. The class given is biochemical, Arabidopsis thaliana. The conditions noted are these: 50 mM TEAB pH 7.0, 2 mM MgCl2, 10 µM Glc-1,6bP, 25°C.

Substrate in data set [2]: O=P(O)(O)OC[C@H]1O[C@H](OP(=O)(O)O)[C@H](O)[C@@H](O)[C@@H]1O
Briefly: purified protein. The conditions noted are these: 50 mM TEAB pH 7.0, 2 mM MgCl2, Glc-1P as substrate, 25°C, catalytic intermediate, Figure 3 legend prints 4.3, varied: cofactor. The class given is biochemical, Arabidopsis thaliana.

B1: PGM3 (Arabidopsis thaliana) (protein)
chain: MVFKVSTVSTSPIDGQKPGTSGLRKKVKVFKQPNYLENFVQATFNALTAEKVKGATLVVSGDGRYYSKDAVQIIIKMAAANGVRRVWVGKNTLLSTPAVSAVIRERSGADGSKATGAFILTASHNPGGPTEDFGIKYNMENGGPAPESITDKIYENTKTIKEYPIAQDLPNVDISAVGVTSFEGPEGKFDVEVFDPADDYVKLMKSIFDFEAIRKLLSSPKFTFCYDALHGVAGAYAHRIFVEELGAQESALLNCTPKEDFGGGHPDPNLTYAKELVARMGLGKSDTGGEPPEFGAAADGDADRNMILGKRFFVTPSDSVAIIAANAIGAIPYFSSGLKGVARSMPTSAALDVVAKSLNLKFFEVPTGWKFFGNLMDAGMCSVCGEESFGTGSDHIREKDGIWAVLAWMSILAHKNKGNIDGNAKLVSVEDIVRQHWATYGRHYYTRYDYENVDAGKAKELMEHLVKLQSSIPEVNKIVKGIRSDVASVASADEFEYKDPVDGSISKHQGIRYLFEDGSRLVFRLSGTGSEGATIRLYIEQYEKDASKTGRESQEALSPLVDLALKLSKMEEFTGRSAPTVIT
notes: forward primer encodes (tag)HHHHHG-MVFKVSTVS
Regarding B1, the Michaelis constant (Km) in data set [1] came to 90 µM; in data set [2] it was 4.38 µM.
